Experimental data from US20250230248A1 (TAVOTEK BIOTHERAPEUTICS HONG KONG, published 2025).

Key:
[1] = target: T1, cMET extracellular domain (ECD) (UniProt P08581 25-932, limits assumed); assay: blocking of HGF binding to cMET ECD, ELISA, FIG. 3F
T1 construct: extracellular domain; Probably the same reagent as recombinant human cMET; also called cMET ECD

[2] = target: T1, cMET extracellular domain (ECD); assay: ELISA on cMET ECD, FIG. 3A
EGFR on HCC827 cells [3] = target: T2, EGFR on HCC827 cells (UniProt P00533 25-1210); assay: blocking of EGF binding to EGFR on HCC827 cells, FACS, FIG. 8B
T2 construct: whole, on cells; human tumour cell line; also called EGFR (HCC827)

[4] = target: T3, recombinant human EGFR ECD (human, UniProt P00533 25-645); assay: ELISA on EGFR ECD, FIG. 2A
T3 construct: extracellular domain; also called EGFR extracellular domain (ECD)

EGFR on HCC827 cells [5] = target: T2, EGFR on HCC827 cells; assay: blocking of EGF-EGFR binding, HCC827 cells, gMFI, FIG. 2D

T1 sequence (P08581 25-932 limits assumed): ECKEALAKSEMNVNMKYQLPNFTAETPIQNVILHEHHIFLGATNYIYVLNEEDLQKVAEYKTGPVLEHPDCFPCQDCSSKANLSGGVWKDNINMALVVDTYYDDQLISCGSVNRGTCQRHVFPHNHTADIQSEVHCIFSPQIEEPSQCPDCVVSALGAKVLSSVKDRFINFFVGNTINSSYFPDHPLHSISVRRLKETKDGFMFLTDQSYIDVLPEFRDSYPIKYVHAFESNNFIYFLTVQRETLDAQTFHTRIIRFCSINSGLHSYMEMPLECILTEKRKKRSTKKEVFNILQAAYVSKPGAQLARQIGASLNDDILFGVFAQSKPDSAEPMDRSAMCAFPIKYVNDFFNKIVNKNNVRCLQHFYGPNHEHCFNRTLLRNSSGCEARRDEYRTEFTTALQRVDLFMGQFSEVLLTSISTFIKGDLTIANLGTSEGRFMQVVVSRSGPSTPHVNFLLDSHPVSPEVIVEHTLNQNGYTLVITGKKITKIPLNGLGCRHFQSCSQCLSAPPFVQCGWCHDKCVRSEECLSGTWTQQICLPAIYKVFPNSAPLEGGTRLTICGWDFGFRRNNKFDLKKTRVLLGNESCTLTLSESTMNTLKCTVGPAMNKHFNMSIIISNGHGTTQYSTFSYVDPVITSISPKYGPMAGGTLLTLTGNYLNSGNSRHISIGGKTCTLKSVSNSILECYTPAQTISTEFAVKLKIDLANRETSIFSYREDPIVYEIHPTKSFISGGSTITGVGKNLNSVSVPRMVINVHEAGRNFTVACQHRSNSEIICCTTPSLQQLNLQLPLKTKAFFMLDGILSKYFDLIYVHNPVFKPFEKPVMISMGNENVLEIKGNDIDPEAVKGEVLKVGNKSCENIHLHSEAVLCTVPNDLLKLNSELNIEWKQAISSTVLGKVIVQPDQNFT

B1: EV1 (antibody, V domains shown)
VH: QVQLVQSGAEVKKPGASVKVSCKASGYTFTDYYMHWVRQAPGQGLEWMGRVNPNRGGTTYAQKFQGRVTMTTDTSISTAYMELSRLRSDDTAVYYCARANWLDYWGQGTTVTVSS
VL: DIQMTQSPSSLSASVGDRVTITCRVSQSVSSIYLHWYQQKPGKAPKLLIYSTSNLQSGVPSRFSGSGSGTDFTLTISSLQPEDFATYYCQVYSGYPLTFGGGTKVEIK
notes: anti-cMET mAb hit; also called cMET EVH1 / cMET EVL1
In the case of B1, the EC50 [1] is reported as about 0.093 µg/mL and the EC50 [2] is reported as about 0.0175 µg/mL.

B2: 7D VH6×EV1 bispecific antibody (bispecific antibody, not shown: a dimerising Fc or GST)
chain: not shown
VH: QVQLVQSGAEVKKPGASVKVSCKASGYTFTDYYMHWVRQAPGQGLEWMGRVNPNRGGTTYAQKFQGRVTMTTDTSISTAYMELSRLRSDDTAVYYCARANWLDYWGQGTTVTVSS
VL: DIQMTQSPSSLSASVGDRVTITCRVSQSVSSIYLHWYQQKPGKAPKLLIYSTSNLQSGVPSRFSGSGSGTDFTLTISSLQPEDFATYYCQVYSGYPLTFGGGTKVEIK
notes: also called EGFR×cMet hit; candidate BsAb
With B2 the EC50 (EGFR on HCC827 cells [3]) was about 0.63 nM.

B3: 7D VH4×EV1 bispecific antibody (bispecific antibody, not shown: a dimerising Fc or GST)
chain: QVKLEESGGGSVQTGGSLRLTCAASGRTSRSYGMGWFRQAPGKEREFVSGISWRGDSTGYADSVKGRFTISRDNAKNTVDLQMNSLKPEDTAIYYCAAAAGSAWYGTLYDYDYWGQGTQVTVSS
VH: QVQLVQSGAEVKKPGASVKVSCKASGYTFTDYYMHWVRQAPGQGLEWMGRVNPNRGGTTYAQKFQGRVTMTTDTSISTAYMELSRLRSDDTAVYYCARANWLDYWGQGTTVTVSS
VL: DIQMTQSPSSLSASVGDRVTITCRVSQSVSSIYLHWYQQKPGKAPKLLIYSTSNLQSGVPSRFSGSGSGTDFTLTISSLQPEDFATYYCQVYSGYPLTFGGGTKVEIK
notes: as for B2
Binder B3 has an EC50 (EGFR on HCC827 cells [3]) of about 0.81 nM.

B4: gp120 mAb (antibody, V domains shown)
VH: QVQLVQSGAEVKKPGASVKVSCQASGYRFSNFVIHWVRQAPGQRFEWMGWINPYNGNKEFSAKFQDRVTFTADTSANTAYMELRSLRSADTAVYYCARVGPYSWDDSPQDNYYMDVWGKGTTVIVSS
VL: EIVLTQSPGTLSLSPGERATFSCRSSHSIRSRRVAWYQHKPGQAPRLVIHGVSNRASGISDRFSGSGSGTDFTLTITRVEPEDFALYYCQVYGASSYTFGQGTKLERK
notes: also called anti-gp120 mAb v12; null control Ab
B4: no binding [4].

B5: Onartuzumab (antibody, V domains shown)
VH: EVQLVESGGGLVQPGGSLRLSCAASGYTFTSYWLHWVRQAPGKGLEWVGMIDPSNSDTRFNPNFKDRFTISADTSKNTAYLQMNSLRAEDTAVYYCATYRSYVTPLDYWGQGTLVTVSS
VL: DIQMTQSPSSLSASVGDRVTITCKSSQSLLYTSSQKNYLAWYQQKPGKAPKLLIYWASTRESGVPSRFSGSGSGTDFTLTISSLQPEDFATYYCQQYYAYPWTFGQGTKVEIK
notes: also called cMET OVH0 / cMET OVL0
Work on B5 yielded an EC50 [1] of about 0.093 µg/mL and an EC50 [2] of about 0.025 µg/mL.

B6: TV4 (antibody, V domains shown)
VH: QVQLQESGPGLVKPSGTLSLTCAVSGYIFTAYTMHWVRQPPGKGLEWIGGIKPNNGLANYNPSLKSRATLSVDKSKNQASMKLSSVTAADTAVYYCARSEITTEFDYWGQGTLVTVSS
VL: DIQMTQSPSSLSASVGDRVTITCRASESVDSYANSFMHWYQQKPGKAPKLLIYRASNLESGVPSRFSGSGSGTDFTLTISSLQPEDFATYYCQQSKEDPLTFGGGTKVEIK
notes: anti-cMET mAb hit; also called cMET TVH2 / cMET TVL2
B6 gave an EC50 [1] of about 0.108 µg/mL and an EC50 [2] of about 0.018 µg/mL.

B7: 7D VH6×TV4 bispecific antibody (bispecific antibody, not shown: a dimerising Fc or GST)
chain: not shown
VH: QVQLQESGPGLVKPSGTLSLTCAVSGYIFTAYTMHWVRQPPGKGLEWIGGIKPNNGLANYNPSLKSRATLSVDKSKNQASMKLSSVTAADTAVYYCARSEITTEFDYWGQGTLVTVSS
VL: DIQMTQSPSSLSASVGDRVTITCRASESVDSYANSFMHWYQQKPGKAPKLLIYRASNLESGVPSRFSGSGSGTDFTLTISSLQPEDFATYYCQQSKEDPLTFGGGTKVEIK
notes: as for B2
Work on B7 yielded an EC50 (EGFR on HCC827 cells [3]) of about 0.63 nM.

B8: 7D VH4×TV4 bispecific antibody (bispecific antibody, not shown: a dimerising Fc or GST)
chain: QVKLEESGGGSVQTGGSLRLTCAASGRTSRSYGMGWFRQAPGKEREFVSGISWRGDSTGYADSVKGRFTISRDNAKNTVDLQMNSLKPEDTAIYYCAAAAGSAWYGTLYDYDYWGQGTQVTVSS
VH: QVQLQESGPGLVKPSGTLSLTCAVSGYIFTAYTMHWVRQPPGKGLEWIGGIKPNNGLANYNPSLKSRATLSVDKSKNQASMKLSSVTAADTAVYYCARSEITTEFDYWGQGTLVTVSS
VL: DIQMTQSPSSLSASVGDRVTITCRASESVDSYANSFMHWYQQKPGKAPKLLIYRASNLESGVPSRFSGSGSGTDFTLTISSLQPEDFATYYCQQSKEDPLTFGGGTKVEIK
notes: as for B2
For B8, the EC50 (EGFR on HCC827 cells [3]) was about 0.93 nM.

B9: 7D VH1 (VHH)
VHH: EVQLVESGGGVVRPGGSLRLSCAASGRTSRSYGMGWFRQAPGKEREFVSGISWRGDSTGYADSVKGRFTISRDNAKNSVDLQMNSLRAEDTALYYCAAAAGSAWYGTLYEYDYWGQGTQVTVSS
notes: also called 7D VH hit; EGFR VHO mAb
Binder B9 has an EC50 (EGFR on HCC827 cells [5]) of about 0.025 µg/mL.

B10: TV1 (antibody, V domains shown)
VH: QVQLVQSGAEVKKPGSSVKVSCKASGYIFTAYTMHWVRQAPGQGLEWMGGIKPNNGLANYAQKFQGRVTITADESTSTAYMELSSLRSEDTAVYYCARSEITTEFDYWGQGTLVTVSS
VL: DIVMTQSPDSLAVSLGERATINCKSSESVDSYANSFLHWYQQKPGQPPKLLIYRASTRESGVPDRFSGSGSGTDFTLTISSLQAEDVAVYYCQQSKEDPLTFGGGTKVEIK
notes: anti-cMET mAb hit; also called cMET TVH1 / cMET TVL0
In the case of B10, the EC50 [1] is reported as about 0.122 µg/mL and the EC50 [2] is reported as about 0.0185 µg/mL.
